This note sets out measurements from patent US20100311820, “NUCLEIC ACID MODULATORS OF GLYCOPROTEIN VI” (Regado Biosciences, Inc, published 2010).

For orientation: Kd means the concentration at which binding is half-saturated. Low values mean a tighter complex, high ones a looser complex.

The target in this series is T1, Glycoprotein VI extracellular domain (Gln21-Lys267) (Homo sapiens, UniProt Q9HCN6 SEQ:1-247).
T1 chain: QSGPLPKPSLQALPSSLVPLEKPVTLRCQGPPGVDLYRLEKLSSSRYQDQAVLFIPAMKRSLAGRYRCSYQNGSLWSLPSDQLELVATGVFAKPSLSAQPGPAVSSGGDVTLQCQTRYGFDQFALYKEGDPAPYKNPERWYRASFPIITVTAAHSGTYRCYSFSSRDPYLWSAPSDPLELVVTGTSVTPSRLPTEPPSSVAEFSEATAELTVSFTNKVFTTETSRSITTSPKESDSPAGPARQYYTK
The series can be described thus: filter. The note with it: tags: C-terminal His6; R&D Systems 3627-GP; label: 5'-32P. As to the method:
Enrichment of the ligand libraries for GPVI was monitored in direct binding studies utilizing radiolabeled ligand RNA from respective rounds of SELEX and soluble GPVI. Binding studies were performed with trace P³² end-labeled RNA added to serial dilutions of GPVI in Binding Buffer F. To prepare radiolabeled RNAs for binding studies, one hundred picomoles of RNA was dephosphorylated with Bacterial Alkaline Phopshatase at 50° C. for 1 hour. The reaction was phenol:chloroform:isoamyl alcohol (25:24:1) extracted, chloroform: isoamyl:alcohol (24:1) extracted, and ethanol precipitated. Three pmoles of dephosphorylated RNA was end labeled with T4 Poylnucleotide Kinase with supplied buffer, and 20 μCi of γ-P³²-ATP and subsequently cleaned with a Biorad MicroBio Spin P-30 spin column. End-labeled RNA was diluted to a final concentration of 2000 cpm/μL and heat denatured at 65° C. for 5 minutes. RNA and GPVI dilutions were equilibrated at 37° C. prior to use. RNA (5 μL) was added to varying concentrations of GPVI (15 μL) at 37° C. and incubated together for 5 to 15 minutes. The complexed RNA/GPVI protein mixture was then loaded over a Protean BA85 nitrocellulose membrane, overlayed on a Genescreen Plus Nylon membrane, in a 96 well vacuum manifold system with washing. The membranes were exposed to a phosphorimager screen, scanned, and quantitated with a Molecular Dynamics Storm 840 Phosphorimager. The fraction bound was calculated by dividing the counts on the nitrocellulose by the total counts and adjusting for the background. Results for binding of enriched ligand libraries from round 10 E2 and round 10 EF of the SELEX as compared to the GPVI-naïve starting ligand library are shown in FIG. 3.

GGGAGGACGGCGCUAACGCCUGGCAUAAGCCUCCC (ssRNA, 2'-F C and U; 2'-OH A and G) [EF-31 T7 (RB444)] yielded a Kd of 15.5 nM. To GGGAGGACGGCGCUAACGCCUGGCAUAAGCCUCCC (ssRNA, RB448 with 2'-OMe G22) [RB460] belongs 15.5 nM; to GGGAGGACGGCGCUAACGCCUGGCAUAAGCCUCCC (ssRNA, RB448 with 2'-OMe C11,G12,C17,G18) [RB455], 15.5 nM; to GGGAGGACGGCGCUAACGCCUGGCAUAAGCCUCCC (ssRNA, RB448 with 2'-OMe at most of Stem 1 (G1,G2,G3,A4 and 3' partners)) [RB452], 15.5 nM.

B1: E2-6 (RB431) (ssRNA)
RNA: GGGAGGACGAUGCGGAUAGACCGCGUCUGGCAUAAGCCUCCAAACACUCUGAUCCCAGACGACUCGCUGAGGAUCCGAGA
modifications: 2'-F C and U; 2'-OH A and G
Take B1: the Kd is 15.5 nM. To GGGAGGACGAUGCGGUCUAAGCUGCGUCUGGCAUAAGCCUCACCUACU (ssRNA, 2'-F C and U; 2'-OH A and G) [EF-31 T1 (RB436)] belongs 15.5 nM.

Take GGAGGACGGCGCGCCUGGCAUAAGCCUCC (ssRNA, RB551 with PS G9-C10) [RB556]: the Kd is less than 10 nM.

B2: EF-3 (RB429) (ssRNA)
RNA: GGGAGGACGAUGCGGAUCACACCGCGUCUUGCGUAAGCCUCCUACUAACGGAUCGCAGACGACUCGCUGAGGAUCCGAGA
modifications: 2'-F C and U; 2'-OH A and G
B2: binding was characterised by a dissociation constant (Kd) of 15.5 nM. To GGGAGGACGAUGCGGUCUAAGCUGCGUCUGGCAUAAGCCUCACC (ssRNA, 2'-F C and U; 2'-OH A and G) [EF-31 T2 (RB439)] belongs 15.5 nM; to GGGAGGACGGCGAUCACACGCCUUGCGUAAGCCUCCC (ssRNA, 2'-F C and U; 2'-OH A and G) [EF-3 T5 (RB447)], 15.5 nM; to GGAGGACGGCGCGCCUGGCAUAAGCCUCC (ssRNA, RB540 with PS G9-C10) [RB550], less than 10 nM.

B3: EF-2 T1 (ssRNA)
RNA: GGGAGGACGAUGCGGUGCCAAAACACCCGUCUUGCAUAAGCCUCCUACGGCAACU
modifications: 2'-F C and U; 2'-OH A and G
The molecule B3 had a Kd of 15.5 nM. To GGGAGGACGGCGUCUAAGCGCCUGGCAUAAGCCUCCC (ssRNA, 2'-F C and U; 2'-OH A and G) [EF-31 T6 (RB443)] belongs 15.5 nM. In the case of GGGAGGACGGCGGUCUAAGCUGCCUGGCAUAAGCCUCCC (ssRNA, 2'-F C and U; 2'-OH A and G) [EF-31 T5 (RB442)], the Kd was 15.5 nM. For GGAGGACGGCGCGCCUGGCAUAAGCCUCC (ssRNA, RB540 with PS C7-G8 and G8-G9) [RB561] the value was less than 10 nM.

B4: EF-31 (RB435) (ssRNA)
RNA: GGGAGGACGAUGCGGUCUAAGCUGCGUCUGGCAUAAGCCUCACCUACUCGAUACUCAGACGACUCGCUGAGGAUCCGAGA
modifications: 2'-F C and U; 2'-OH A and G
In turn, B4 yielded a Kd of 15.5 nM.

Take GGAGGACGGCGCGCCUGGCAUAAGCCUCC (ssRNA, RB551 with PS G8-G9) [RB555]: the Kd was less than 10 nM. For GGGAGGACGAUGCGGUGCCAAAACACCCGUCUUGCAUAAGCCUCCU (ssRNA, 2'-F C and U; 2'-OH A and G) [EF-2 T2 (RB428)], the Kd stood at 15.5 nM. To GGGAGGACGAUGCGGUCUAAGCUGCGUCUGGCAUAAGCCUCCC (ssRNA, 2'-F C and U; 2'-OH A and G) [EF-31 T3 (RB440)] belongs 15.5 nM; to GGAGGACGGCGCGCCUGGCAUAAGCCUCC (ssRNA, RB551 with PS C7-G8) [RB554], less than 10 nM; to GGGAGGACGAUGCGGAUCACACCGCGUCUUGCGUAAGCCUCCU (ssRNA, 2'-F C and U; 2'-OH A and G) [EF-3 T2 (RB430)], 15.5 nM. As to GGGAGGACGGCGGAUCACACCGCCUUGCGUAAGCCUCCC (ssRNA, 2'-F C and U; 2'-OH A and G) [EF-3 T4 (RB446)], binding was characterised by a dissociation constant (Kd) of 15.5 nM.

GGGAGGACGAUGCGGAUAGACCGCGUCUGGCAUAAGCCUCC (ssRNA, 2'-F C and U; 2'-OH A and G) [E2-6 T1 (RB432)] returned a Kd of 15.5 nM. For GGGAGGACGGCGCGCCUGGCAUAAGCCUCCC (ssRNA, RB490 pattern but 2'-OH G19 and 2'-F C26) [RB488] the value was less than 10 nM; for GGGAGGACGGCGCGCCUGGCAUAAGCCUCCC (ssRNA, RB490 with 2'-OMe A7) [RB492], 15.5 nM. Molecule GGGAGGACGGCGCGCCUGGCAUAAGCCUCCC (ssRNA, RB490 with 2'-OMe G9) [RB497] registered a Kd of less than 10 nM. For GGGAGGACGGCGCGCCUGGCAUAAGCCUCCC (ssRNA, RB490 with 2'-deoxy A7) [RB495], the Kd is less than 10 nM. Molecule GGGAGGACGGCGCGCCUGGCAUAAGCCUCCC (ssRNA, RB490 with 2'-OMe U22) [RB504] gave a Kd of 15.5 nM.

Consider GGGAGGACGGCGCGCCUGGCAUAAGCCUCCC (ssRNA, RB490 with 2'-deoxy C8) [RB496], for which binding was put at a Kd of 15.5 nM.

As to GGGAGGACGGCGCGCCUGGCAUAAGCCUCCC (ssRNA, RB490 with 2'-OMe G6,A7) [RB518], the dissociation constant (Kd) came to 15.5 nM. As to GGGAGGACGGCGCGCCUGGCAUAAGCCUCCC (ssRNA, RB520 with 2'-F C15) [RB524], the Kd was 15.5 nM.

In turn, GGGAGGACGGCGCGCCUGGCGUAAGCCUCCC (ssRNA, RB531 pattern with 2'-OMe G21) [RB532] displayed a Kd of 15.5 nM. To GGGAGGACGGCGCGCCUGGCAUAAGCCUCCC (ssRNA, RB490 with 2'-OMe G10) [RB499] belongs 15.5 nM; to GGGAGGACGGCGCGCCUGGCAUAAGCCUCCC (ssRNA, RB490 with 2'-OMe G6) [RB491], less than 10 nM. To GGGAGGACGGCGCGCCUGGCAUAAGCCUCCC (ssRNA, RB490 with 2'-OMe A24) [RB506] belongs less than 10 nM; to GGGAGGACGGCGCGCCUUGCGUAAGCCUCCC (ssRNA, RB526 pattern with 2'-F U18 and 2'-OMe G21) [RB534], 15.5 nM. For GGGAGGACGGCGCGCCUUGCAUAAGCCUCCC (ssRNA, RB526 pattern with 2'-F U18) [RB533] the value was 15.5 nM; for GGGAGGACGGCGCGCCUGGCAUAAGCCUCCC (ssRNA, RB490 with 2'-OMe G25) [RB502], less than 10 nM. In turn, GGGAGGACGGCGCGCCUGGCAUAAGCCUCCC (ssRNA, RB490 with 2'-OMe A23) [RB505] registered a Kd of less than 10 nM. GGGAGGACGGCGCGCCUGGCAUAAGCCUCCC (ssRNA, RB526 with 2'-OMe G18) [RB531] displayed a Kd of 15.5 nM.

GGGAGGACGGCGCGCCUGGCAUAAGCCUCCC (ssRNA, RB524 with 2'-deoxy A7,G9) [RB526]: binding was characterised by a dissociation constant (Kd) of 15.5 nM. On to GGGAGGACGGCGCGCCUGGCAUAAGCCUCCC (ssRNA, RB490 with 2'-OMe C8) [RB493], for which the affinity, expressed as Kd, was 15.5 nM. To GGGAGGACGGCGCGCCUGGCAUAAGCCUCCC (ssRNA, RB490 with 2'-OMe G6, 2'-deoxy A7) [RB519] belongs less than 10 nM; to GGGAGGACGGCGCGCCUGGCAUAAGCCUCCC (ssRNA, RB490 with 2'-OMe A21) [RB503], less than 10 nM.

In turn, GGGAGGACGGCGCGCCUGGCAUAAGCCUCCC (ssRNA, RB490 with 2'-OMe C15) [RB500] came in with a Kd of less than 10 nM. GGGAGGACGAUGCGGAUUCAACCCGCCUCUGGCAUAAGCCUACCC (ssRNA, 2'-F C and U; 2'-OH A and G) [EF-22 T1 (RB434)] displayed a Kd of 15.5 nM.

B5: EF-22 (RB433) (ssRNA)
RNA: GGGAGGACGAUGCGGAUUCAACCCGCCUCUGGCAUAAGCCUACCCAUCGUGAUUGUCAGACGACUCGCUGAGGAUCCGAGA
modifications: 2'-F C and U; 2'-OH A and G
B5 had a Kd of 15.5 nM.
